Measured values from paper PMC2756588.

T1: Bbc1, P47068
T1 sequence (P47068 1-78, looked up): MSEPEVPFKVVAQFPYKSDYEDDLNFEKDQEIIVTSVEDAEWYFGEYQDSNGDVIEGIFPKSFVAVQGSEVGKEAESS

T2: Sla1-3, P32790
T2 sequence (P32790 344-424, looked up): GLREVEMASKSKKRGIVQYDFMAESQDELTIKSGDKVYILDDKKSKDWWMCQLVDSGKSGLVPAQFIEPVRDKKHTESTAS

T3: Hof1, Q05080
T3 sequence (Q05080 590-669, looked up): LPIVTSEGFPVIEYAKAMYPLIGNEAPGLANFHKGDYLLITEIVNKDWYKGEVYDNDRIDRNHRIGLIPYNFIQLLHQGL

T4: Abp1, P15891
T4 sequence (P15891 535-592, looked up): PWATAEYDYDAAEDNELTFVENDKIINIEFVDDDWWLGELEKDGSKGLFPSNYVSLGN

T5: Boi1, P38041
T5 sequence (P38041 1-86, looked up): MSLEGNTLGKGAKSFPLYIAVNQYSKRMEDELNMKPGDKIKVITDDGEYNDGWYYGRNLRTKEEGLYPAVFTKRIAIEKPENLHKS

T6: Lsb1, P53281
T6 sequence (P53281 45-122, looked up): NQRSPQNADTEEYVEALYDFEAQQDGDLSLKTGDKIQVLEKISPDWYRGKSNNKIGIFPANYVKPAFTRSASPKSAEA

T7: Bud14, P27637
T7 sequence (P27637 247-328, looked up): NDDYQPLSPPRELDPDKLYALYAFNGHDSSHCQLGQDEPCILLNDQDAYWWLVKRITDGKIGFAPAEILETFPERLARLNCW

T8: Nbp2, Q12163
T8 sequence (Q12163 103-180, looked up): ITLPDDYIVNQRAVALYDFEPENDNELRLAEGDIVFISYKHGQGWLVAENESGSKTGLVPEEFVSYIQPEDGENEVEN

T9: Cyk3, Q07533
T9 sequence (Q07533 1-83, looked up): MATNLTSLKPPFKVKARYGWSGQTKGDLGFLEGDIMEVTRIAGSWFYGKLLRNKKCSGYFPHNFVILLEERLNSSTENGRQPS

T10: Hse1, P38753
T10 sequence (P38753 208-285, looked up): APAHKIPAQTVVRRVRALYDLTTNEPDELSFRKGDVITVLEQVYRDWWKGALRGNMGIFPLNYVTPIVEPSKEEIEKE

T11: Boi2, P39969
T11 sequence (P39969 32-116, looked up): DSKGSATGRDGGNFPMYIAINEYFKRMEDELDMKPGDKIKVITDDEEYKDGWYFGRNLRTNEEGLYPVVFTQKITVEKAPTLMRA

T12: Pex13, P80667
T12 sequence (P80667 295-386, looked up): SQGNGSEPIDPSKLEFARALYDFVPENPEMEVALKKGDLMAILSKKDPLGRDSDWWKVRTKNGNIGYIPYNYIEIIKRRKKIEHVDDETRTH

T13: Bzz1-2, P38822
T13 sequence (P38822 568-633, looked up): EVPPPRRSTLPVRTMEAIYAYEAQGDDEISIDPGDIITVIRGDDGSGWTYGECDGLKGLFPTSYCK

T14: Myo5, Q04439
T14 sequence (Q04439 1072-1160, looked up): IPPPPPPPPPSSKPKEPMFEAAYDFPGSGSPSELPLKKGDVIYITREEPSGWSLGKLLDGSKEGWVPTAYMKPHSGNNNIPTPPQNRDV

T15: Pin3, Q06449
T15 sequence (Q06449 53-122, looked up): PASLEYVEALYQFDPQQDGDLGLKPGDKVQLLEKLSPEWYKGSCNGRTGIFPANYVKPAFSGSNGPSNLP

T16: Bzz1-1, P38822
T16 sequence (P38822 478-572, looked up): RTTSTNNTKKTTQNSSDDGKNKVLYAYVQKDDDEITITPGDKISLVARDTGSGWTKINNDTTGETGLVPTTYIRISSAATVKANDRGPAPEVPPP

T17: Cdc25, P04821
T17 sequence (P04821 50-136, looked up): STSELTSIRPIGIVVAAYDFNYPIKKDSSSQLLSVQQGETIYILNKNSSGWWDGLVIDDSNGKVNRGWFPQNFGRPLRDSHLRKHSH

T18: Sla1-2, P32790
T18 sequence (P32790 60-140, looked up): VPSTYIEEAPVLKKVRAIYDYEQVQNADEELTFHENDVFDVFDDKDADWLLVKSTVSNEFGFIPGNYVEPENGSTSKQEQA

T19: Lsb3, P43603
T19 sequence (P43603 385-451, looked up): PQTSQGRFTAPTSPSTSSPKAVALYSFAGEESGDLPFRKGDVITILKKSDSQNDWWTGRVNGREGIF

T20: Lsb4, P32793
T20 sequence (P32793 402-468, looked up): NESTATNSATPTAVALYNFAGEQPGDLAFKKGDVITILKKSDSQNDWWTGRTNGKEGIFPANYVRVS

T21: Fus1, P11710
T21 sequence (P11710 432-512, looked up): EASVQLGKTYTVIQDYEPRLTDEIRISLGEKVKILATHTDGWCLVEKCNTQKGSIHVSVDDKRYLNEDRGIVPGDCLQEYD


Columns and labels:
Assay in all cases: SPOT array
Bbc1, P47068 = biological target: T1, Bbc1, P47068; settings: median of control spots 796
Sla1-3, P32790 = biological target: T2, Sla1-3, P32790; settings: median of control spots 5475
Hof1, Q05080 = biological target: T3, Hof1, Q05080; settings: median of control spots 4086
Abp1, P15891 = biological target: T4, Abp1, P15891; settings: median of control spots 935
Boi1, P38041 = biological target: T5, Boi1, P38041; settings: median of control spots 1162
Sho1, P40073 = settings: median of control spots 1148
Sho1, P40073, sequence (P40073 287-367): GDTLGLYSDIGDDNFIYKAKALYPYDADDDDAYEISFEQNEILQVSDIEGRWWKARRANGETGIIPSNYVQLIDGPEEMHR

Lsb1, P53281 = biological target: T6, Lsb1, P53281; settings: median of control spots 388
Bud14, P27637 = biological target: T7, Bud14, P27637; settings: median of control spots 956
Nbp2, Q12163 = biological target: T8, Nbp2, Q12163; settings: median of control spots 357
Cyk3, Q07533 = biological target: T9, Cyk3, Q07533; settings: median of control spots 1451
Myo3, P36006 = settings: median of control spots 468
Hse1, P38753 = biological target: T10, Hse1, P38753; settings: median of control spots 1727
Boi2, P39969 = biological target: T11, Boi2, P39969; settings: median of control spots 1161
Pex13, P80667 = biological target: T12, Pex13, P80667; settings: median of control spots 1341
Bzz1-2, P38822 = biological target: T13, Bzz1-2, P38822; settings: median of control spots 4538
Myo5, Q04439 = biological target: T14, Myo5, Q04439; settings: median of control spots 471
Pin3, Q06449 = biological target: T15, Pin3, Q06449; settings: median of control spots 2171
Bem1-1, P29366 = settings: median of control spots 4282
Bem1-1, P29366, sequence (P29366 55-141): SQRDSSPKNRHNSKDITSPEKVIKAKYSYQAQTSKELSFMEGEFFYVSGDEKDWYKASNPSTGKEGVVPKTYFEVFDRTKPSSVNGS

Bzz1-1, P38822 = biological target: T16, Bzz1-1, P38822; settings: median of control spots 4446
Cdc25, P04821 = biological target: T17, Cdc25, P04821; settings: median of control spots 969
Sla1-2, P32790 = biological target: T18, Sla1-2, P32790; settings: median of control spots 712
Rvs167, P39743 = settings: median of control spots 2707
Rvs167, P39743, sequence (P39743 419-482): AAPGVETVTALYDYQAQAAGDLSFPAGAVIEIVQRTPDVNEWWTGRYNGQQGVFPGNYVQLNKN

Bem1-2, P29366 = settings: median of control spots 4347
Bem1-2, P29366, sequence (P29366 139-227): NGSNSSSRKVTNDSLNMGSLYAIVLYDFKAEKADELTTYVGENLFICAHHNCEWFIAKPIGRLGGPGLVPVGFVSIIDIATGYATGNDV

Lsb3, P43603 = biological target: T19, Lsb3, P43603; settings: median of control spots 406
Lsb4, P32793 = biological target: T20, Lsb4, P32793; settings: median of control spots 397
Fus1, P11710 = biological target: T21, Fus1, P11710; settings: median of control spots 1200
GST = settings: median of control spots 978

Binder	SPOT intensity (Bbc1, P47068)	SPOT intensity (Sla1-3, P32790)	SPOT intensity (Hof1, Q05080)	SPOT intensity (Abp1, P15891)	SPOT intensity (Boi1, P38041)	SPOT intensity (Sho1, P40073)	SPOT intensity (Lsb1, P53281)	SPOT intensity (Bud14, P27637)	SPOT intensity (Nbp2, Q12163)	SPOT intensity (Cyk3, Q07533)	SPOT intensity (Myo3, P36006)	SPOT intensity (Hse1, P38753)	SPOT intensity (Boi2, P39969)	SPOT intensity (Pex13, P80667)	SPOT intensity (Bzz1-2, P38822)	SPOT intensity (Myo5, Q04439)	SPOT intensity (Pin3, Q06449)	SPOT intensity (Bem1-1, P29366)	SPOT intensity (Bzz1-1, P38822)	SPOT intensity (Cdc25, P04821)	also measured
RSRRSSFAYPQQVAI	24	29	4	28	1	64	0	3	0	0	8	5	0	4	1	0	8	0	1	10	SPOT intensity (Sla1-2, P32790): 1; SPOT intensity (Rvs167, P39743): 2; SPOT intensity (Bem1-2, P29366): 0; SPOT intensity (Lsb3, P43603): 2; SPOT intensity (Lsb4, P32793): 0; SPOT intensity (Fus1, P11710): 26; SPOT intensity (GST): 0
LSKRLPLRFPEHTSS	2	24	25	22	0	29	1	1	2	0	0	101	0	3	7	0	0	0	0	3	SPOT intensity (Sla1-2, P32790): 0; SPOT intensity (Rvs167, P39743): 0; SPOT intensity (Bem1-2, P29366): 4; SPOT intensity (Lsb3, P43603): 0; SPOT intensity (Lsb4, P32793): 4; SPOT intensity (Fus1, P11710): 1; SPOT intensity (GST): 0
TKIRRRPQQPLTDFT	190	20	0	121	1	120	30	24	2	1	14	1	1	3	6	2	11	0	0	27	SPOT intensity (Sla1-2, P32790): 1; SPOT intensity (Rvs167, P39743): 1; SPOT intensity (Bem1-2, P29366): 1; SPOT intensity (Lsb3, P43603): 4; SPOT intensity (Lsb4, P32793): 8; SPOT intensity (Fus1, P11710): 6; SPOT intensity (GST): 2
PSRRDSLSIPRAVDA	0	0	0	8	0	13	1	0	0	1	3	0	1	1	0	2	11	0	0	0	SPOT intensity (Sla1-2, P32790): 0; SPOT intensity (Rvs167, P39743): 0; SPOT intensity (Bem1-2, P29366): 0; SPOT intensity (Lsb3, P43603): 1; SPOT intensity (Lsb4, P32793): 0; SPOT intensity (Fus1, P11710): 0; SPOT intensity (GST): 2
